From patent US20140234868A1, “USE FOR GLYCOLIPOPROTEIN GINTONIN, ISOLATED AND IDENTIFIED FROM GINSENG, AS A NATURAL MEDICAL-PLANT DERIVED LIGAND” (KONKUK UNIVERSITY INDUSTRIAL COOPERATION CORP., priority 2011, published 2014)

Key:
[1] = tested on: NMDA receptors (NR1 and NR2); assay: NMDA receptor activity in Xenopus oocytes, two-electrode voltage clamp; assay type: cell-based
Method in brief: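 Xenopus oocytes injected with NR1 and NR2 cDNA (100 ng/40 nl) and kept 4-5 days at 18 °C in ND96. Two-electrode voltage clamp at −60 mV in Mg2+-free ND96, pH 7.6. Currents evoked by […].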

endogenous CaCC = assay: Endogenous Ca2+-activated channel (CaCC) activation in Xenopus oocytes; assay type: cell-based, Xenopus laevis
LPA1 receptor = LPA1 receptor (Homo sapiens, UniProt Q92633); assay: Intracellular free Ca2+ (Fura-2AM) in LPA1-expressing B103 cells; assay type: cell-based; parameters: host or cells: B103 rat neuroblastoma cells
Sequence of LPA1 receptor (Q92633 whole entry): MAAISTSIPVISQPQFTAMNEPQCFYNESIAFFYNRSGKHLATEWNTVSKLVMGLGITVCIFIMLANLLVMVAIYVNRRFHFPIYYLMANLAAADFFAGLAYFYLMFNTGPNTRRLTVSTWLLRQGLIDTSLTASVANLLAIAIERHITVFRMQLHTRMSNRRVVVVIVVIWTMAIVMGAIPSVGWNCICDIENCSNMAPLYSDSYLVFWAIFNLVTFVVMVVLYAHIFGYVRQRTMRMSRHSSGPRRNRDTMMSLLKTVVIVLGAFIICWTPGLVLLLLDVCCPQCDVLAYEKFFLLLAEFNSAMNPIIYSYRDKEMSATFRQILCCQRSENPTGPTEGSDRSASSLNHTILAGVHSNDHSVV
Excerpt: LPA family receptors are endogenous to cells of most organs. B103 rat neuroblastoma cells, known as LPA receptor-null cells (Valentine et al., Biochim Biophys Acta 1780. 597-605) were transiently transfected with a plasmid (vector) carrying one of genes coding for LPA1(edg-2), LPA2(edg-4), LPA3(edg-7), LPA4, LPA5 and LPA6 receptors or a plasmid carrying none of them (empty vector). Two or three days after transfection, the cells are suspended, and made permeable. Then, the permeable cells are treated with Fura-2AM, a fluorescent dye binding to calcium, and then with gintonin, followed by spectrofluorephotometry to examine whether gintonin induces an increase in intracellular free Ca^2+ level.
(1) preparing large quantities of plasmids carrying respective LPA family receptor genes and an empty plasmid carrying none of them through amplification and purification (maxi-preparation); (2) verifying the expression of LPA receptors wherein B103 cells are transfected with haematoglutin (HA)-tagged LPA receptors, and then subjected to Western blotting analysis using an anti-HA primary antibody and a horseradish peroxidase (HRP)-conjugated secondary antibody to develop a color; (3) verifying the expression of LPA receptors wherein B1-3 cells are transfected with haematoglutin (HA)-tagged LPA receptors, and then subjected to confocal laser microscopy using an anti-HA antibody and a fluorescence dye Cy3-conjugated secondary antibody; (4) transfecting the empty plasmid and each of the plasmids carrying LPA family receptor genes into B103 cells; (5) treating the transfected B103 cells with trypsin (0.05% trypsin with EDTA, w/v) 2-3 days post-transfection, to give a cell suspension; (6) culturing the suspended B103 cells with Fura-2AM (2.5 μM); and (7) treating the suspended B103 cells with gintonin and quantifying a change in intracellular free Ca^2+ level in a cuvette by spectrofluorephotometry using Fura-2AM.
Human LPA (lysophosphatidic acid) receptor subtypes, orphan GPCRs (G protein coupled receptors) and plasmids carrying GPCRs were purchased from Missouri S&T resource Center (www.cDNA.org).
The transient transfection of LPA receptor subtypes was carried out with the aid of Lipofectamine 2000 of Invitrogen. A plasmid (10.8 μg) carrying each LPA receptor (LPA1, LPA2, LPA3, LPA4, LPA5, and LPA6) was transfected into B103 cells grown in 10-cm dishes, and incubated for 2 days prior for use in experiments.
In this Example, gintonin, or ginsenoside Rb1 or Rg1 was examined for its ability to induce a transient increase of [Ca^2+]i in Fura-2AM-loaded B103 cells which were transfected with LPA receptors and in Fura-2AM-loaded B103 cells which were not transfected with LPA receptors. […]

[2] = Kil6425 10 μM, U73122 1 μM, 2-APB 100 μM, BAPTA 100 μM 3 h

Cc1noc(-c2ccc(CSCCC(=O)O)cc2)c1NC(=O)OC(C)c1ccccc1Cl (stereo not drawn) [Kil6425]
effect on NMDA-induced inward current [1, 2]: had no influences on NMDA-NMDA receptor activation | effect on gintonin-induced NMDA receptor activation ([1]; gintonin 1 μg/ml, Kil6425 10 μM, U73122, U73343 1 μM, 2-APB 100 μM, BAPTA 100 μM 3 h, genistein 10 μM, PP2, PP3 30 μM): blocked gintonin-induced NMDA receptor activation | effect on gintonin-induced CaCC activation (endogenous CaCC; [2]): reduced gintonin-induced CaCC activation | effect on gintonin-induced intracellular calcium increase (LPA1 receptor; LPA1-expressing cells treated with antagonist): did not increase in intracellular calcium level even in the presence of gintonin

B1: gintonin: ginseng-derived glycolipoprotein; structural protein of ginseng major latex-like protein (MLP151) and ribonuclease-like storage proteins; crude gintonin used in tests (protein)
chain 1: MGLTGKLICQTGIKSDGDVFHELFGTRPHHVPNITPANIQGCDLHEGEFGKVGSVVIWNYSIDGNAMIAKEEIVAIDEEDKSVTFKVVEGHLFEEFKSIVFSVHVDTKGEDNLVTWSIDYEKLNESVKDPTSYLDFLLSVTRDIEAHHLPK
chain 2: RSDYPWAMFALRLQWPAGFCEVNNACDTKSLLNTFTIHGLYPYNAKGTPALYCDGTAFDVNSVSDFLAEMHLAWPSHETNTEDIQFWEHEWKKHGRCSEALLKQTDYFRTALAFRKAFDIVGLLNQEGIYPNNDLYRPKMIKEAIKKHLNAVPEIDFTKNENSEYVLTDINVCVNQQATRFVDCPTDDATDDYRLKFVRLPSKMKFADPRTNSII
ED50, NMDA receptor-mediated inward currents ([1]; NMDA receptor-expressing Xenopus oocytes): 0.49 ± 0.10 µg/mL | CaCC activation (endogenous CaCC; gintonin 1 μg/ml, NMDA receptor-expressing Xenopus oocytes): increases CaCC | transient increase of [Ca2+]i when extracellular Ca2+ was depleted (LPA1 receptor; Ca2+-free buffer containing 0.2 mM EGTA, LPA1-expressing cells): at a greatly lowered level | EC50 (LPA1 receptor; LPA1 receptor, B103 cells, read-out: EC50, LPA receptor-mediated intracellular calcium increase): 0.1 ± 0.02 nM | increase in intracellular calcium level (LPA1 receptor; gintonin 1 μg/ml, LPA1-expressing B103 cells): 185.9 ± 12.8 µM
